Results from paper PMC8670242, “Functional Characterization and Structural Insights Into Stereoselectivity of Pulegone Reductase in Menthol Biosynthesis” (Frontiers in Plant Science, 2021).

Key:
[1] = substrate: CC(C)=C1CC[C@@H](C)CC1=O; test: chiral GC of menthone/isomenthone formed, Michaelis-Menten; assay type: biochemical, Mentha x piperita; conditions: 10 mM NADPH with glucose-6-phosphate/G6PDH regeneration, pH 7.5, 31 °C, n-hexane overlay
[2] = substrate: CC(C)=C1CC[C@H](C)CC1=O; test: as above; assay type: biochemical, Mentha x piperita; conditions: 10 mM NADPH with glucose-6-phosphate/G6PDH regeneration, pH 7.5, 31 °C, n-hexane overlay

B1: MpPR (Mentha x piperita) (protein)
chain: MVMNKQIVLNNYINGSLKQSDLALRTSTICMEIPDGCNGAILVKNLYLSVNPYLILRMGKLDIPQFDSILPGSTIVSYGVSKVLDSTHPSYEKGELIWGSQAGWEEYTLIQNPYNLFKIQDKDVPLSYYVGILGMPGMTAYAGFFEICSPKKGETVFVTAAAGSVGQLVGQFAKMFGCYVVGSAGSKEKVDLLKNKFGFDDAFNYKEESDYDTALKRHFPEGIDIYFDNVGGKMLEAVINNMRVHGRIAVCGMVSQYSLKQPEGVHNLLKLIPKQIRMQGFVVVDYYHLYPKFLEMVLPRIKEGKVTYVEDISEGLESAPSALLGVYVGRNVGNQVVAVSRE
notes: pET28a His-tag fusion, E. coli BL21(DE3), Ni-NTA and gel filtration; homodimer; EC 1.3.1.81
[1]
  Km: 3.00 µM
  kcat: 863.66 10^-4 s^-1
[2]
  Km: 8.63 µM
  kcat: 1595.06 10^-4 s^-1
